This note sets out measurements from patent US20160136234A1.

Targets include DAPK1 (h) (human) (UniProt P53355); EGFR(L861Q) (h) (human) (UniProt P00533); FGFR4 (h) (human) (UniProt P22455); GRK6 (h) (human) (UniProt P43250); GSK3α (h) (human) (UniProt P49840); HIPK1 (h) (human) (UniProt Q86Z02); LIMK1 (h) (human) (UniProt P53667); PKCβI (h) (human) (UniProt P05771); PKCγ (h) (human) (UniProt P05129); PKCτ (h) (human); Plk3 (h) (human) (UniProt Q9H4B4); RIPK2 (h) (human) (UniProt O43353); Rsk3 (h) (human) (UniProt Q15349); SGK (h) (human) (UniProt O00141).

Common to all, as to assay: cell-based or functional assay
The next test concerns the target T1, BrSK2 (h) (human) (UniProt Q8IWQ3).
T1 sequence (looked up): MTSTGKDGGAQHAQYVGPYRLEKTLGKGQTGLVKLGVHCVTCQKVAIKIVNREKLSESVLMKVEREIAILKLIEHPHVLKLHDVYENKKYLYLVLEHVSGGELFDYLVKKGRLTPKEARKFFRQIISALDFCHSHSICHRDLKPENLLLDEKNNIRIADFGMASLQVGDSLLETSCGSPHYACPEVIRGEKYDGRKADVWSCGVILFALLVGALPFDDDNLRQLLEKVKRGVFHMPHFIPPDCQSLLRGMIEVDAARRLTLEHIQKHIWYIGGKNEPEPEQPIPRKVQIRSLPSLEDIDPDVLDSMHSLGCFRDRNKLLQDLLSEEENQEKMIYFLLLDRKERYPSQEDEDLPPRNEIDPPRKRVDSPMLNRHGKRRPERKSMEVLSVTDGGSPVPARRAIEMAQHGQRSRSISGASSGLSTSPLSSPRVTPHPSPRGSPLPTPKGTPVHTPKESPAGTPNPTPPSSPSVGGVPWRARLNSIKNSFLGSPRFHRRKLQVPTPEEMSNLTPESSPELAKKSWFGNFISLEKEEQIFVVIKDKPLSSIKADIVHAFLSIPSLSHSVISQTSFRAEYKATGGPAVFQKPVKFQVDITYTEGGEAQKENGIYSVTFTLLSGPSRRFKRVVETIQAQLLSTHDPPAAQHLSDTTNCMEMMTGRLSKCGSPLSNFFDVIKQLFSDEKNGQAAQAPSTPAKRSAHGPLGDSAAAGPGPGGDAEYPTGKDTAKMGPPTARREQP

Another test deals with T2, PKD2 (h) (human) (UniProt Q9BZL6).
T2 sequence (looked up): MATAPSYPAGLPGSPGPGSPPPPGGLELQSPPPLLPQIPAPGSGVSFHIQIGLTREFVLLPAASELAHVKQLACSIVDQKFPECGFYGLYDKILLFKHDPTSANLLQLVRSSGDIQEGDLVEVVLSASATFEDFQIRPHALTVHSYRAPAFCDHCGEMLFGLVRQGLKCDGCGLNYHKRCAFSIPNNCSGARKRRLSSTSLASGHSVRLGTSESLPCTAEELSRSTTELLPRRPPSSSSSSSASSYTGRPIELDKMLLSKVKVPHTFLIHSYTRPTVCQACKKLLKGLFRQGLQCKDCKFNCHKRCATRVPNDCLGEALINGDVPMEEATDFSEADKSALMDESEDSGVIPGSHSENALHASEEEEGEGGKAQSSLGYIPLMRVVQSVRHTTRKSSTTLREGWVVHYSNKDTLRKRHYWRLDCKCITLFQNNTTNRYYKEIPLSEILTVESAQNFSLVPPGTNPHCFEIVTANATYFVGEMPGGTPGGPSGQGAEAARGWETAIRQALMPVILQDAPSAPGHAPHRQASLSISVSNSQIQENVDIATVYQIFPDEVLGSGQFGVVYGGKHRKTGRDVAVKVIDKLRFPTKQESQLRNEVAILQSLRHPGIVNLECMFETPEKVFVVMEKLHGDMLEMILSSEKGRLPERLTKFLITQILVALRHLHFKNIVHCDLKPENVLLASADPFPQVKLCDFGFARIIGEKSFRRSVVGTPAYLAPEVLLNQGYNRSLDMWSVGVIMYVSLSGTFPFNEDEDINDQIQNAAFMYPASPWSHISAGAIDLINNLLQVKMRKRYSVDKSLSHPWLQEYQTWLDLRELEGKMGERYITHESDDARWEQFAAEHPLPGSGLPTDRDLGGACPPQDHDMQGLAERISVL

Another test concerns the target T3, TAO1 (h) (human) (UniProt Q7L7X3).
T3 sequence (looked up): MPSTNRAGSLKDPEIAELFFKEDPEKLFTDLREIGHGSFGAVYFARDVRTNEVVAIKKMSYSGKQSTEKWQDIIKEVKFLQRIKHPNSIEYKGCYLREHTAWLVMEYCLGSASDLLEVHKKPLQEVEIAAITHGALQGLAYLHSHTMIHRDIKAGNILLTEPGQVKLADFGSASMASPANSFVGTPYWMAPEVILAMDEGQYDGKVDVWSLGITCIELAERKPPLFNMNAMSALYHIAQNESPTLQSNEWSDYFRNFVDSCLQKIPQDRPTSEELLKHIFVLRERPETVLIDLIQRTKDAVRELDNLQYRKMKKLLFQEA

Another test has as its target T4, TAO3 (h) (human) (UniProt Q9H2K8).
T4 sequence (looked up): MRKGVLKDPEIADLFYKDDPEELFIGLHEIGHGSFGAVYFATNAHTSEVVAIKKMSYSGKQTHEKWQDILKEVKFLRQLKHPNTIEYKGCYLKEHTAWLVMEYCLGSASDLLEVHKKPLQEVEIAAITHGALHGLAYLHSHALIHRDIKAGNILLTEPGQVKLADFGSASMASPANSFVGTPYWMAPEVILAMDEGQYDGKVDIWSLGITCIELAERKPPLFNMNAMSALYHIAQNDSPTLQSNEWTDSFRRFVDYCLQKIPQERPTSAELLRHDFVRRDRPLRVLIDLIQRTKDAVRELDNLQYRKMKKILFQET

Sequence of RIPK2 (h) (human) (O43353 1-299 limits assumed): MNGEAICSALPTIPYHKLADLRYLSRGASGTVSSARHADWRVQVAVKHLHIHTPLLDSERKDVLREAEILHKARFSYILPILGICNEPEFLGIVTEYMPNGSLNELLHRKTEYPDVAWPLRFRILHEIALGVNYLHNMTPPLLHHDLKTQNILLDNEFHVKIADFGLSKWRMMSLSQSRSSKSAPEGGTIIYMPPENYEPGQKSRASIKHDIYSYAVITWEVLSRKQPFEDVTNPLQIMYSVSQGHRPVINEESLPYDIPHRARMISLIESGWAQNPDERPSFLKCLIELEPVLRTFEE
Sequence of FGFR4 (h) (human) (P22455 460-802 limits assumed): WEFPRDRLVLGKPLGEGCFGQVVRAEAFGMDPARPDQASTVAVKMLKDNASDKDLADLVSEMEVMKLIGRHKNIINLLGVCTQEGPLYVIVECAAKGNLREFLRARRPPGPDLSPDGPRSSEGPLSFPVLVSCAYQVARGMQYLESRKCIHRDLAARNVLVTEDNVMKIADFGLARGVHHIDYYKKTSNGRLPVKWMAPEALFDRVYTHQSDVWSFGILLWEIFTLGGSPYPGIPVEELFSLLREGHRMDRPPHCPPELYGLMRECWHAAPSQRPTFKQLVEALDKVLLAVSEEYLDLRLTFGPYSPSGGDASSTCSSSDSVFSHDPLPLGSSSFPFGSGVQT
Sequence of SGK (h) (human) (O00141 60-431 limits assumed): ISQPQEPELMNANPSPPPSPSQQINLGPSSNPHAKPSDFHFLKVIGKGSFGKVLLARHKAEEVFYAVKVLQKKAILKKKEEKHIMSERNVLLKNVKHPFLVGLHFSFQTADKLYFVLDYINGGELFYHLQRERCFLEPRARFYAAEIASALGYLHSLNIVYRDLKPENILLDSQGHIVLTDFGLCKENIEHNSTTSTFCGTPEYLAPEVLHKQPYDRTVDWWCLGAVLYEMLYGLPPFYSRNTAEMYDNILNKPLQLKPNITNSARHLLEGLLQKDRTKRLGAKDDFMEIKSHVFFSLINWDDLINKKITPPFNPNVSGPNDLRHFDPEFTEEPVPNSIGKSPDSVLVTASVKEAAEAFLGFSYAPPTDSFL
Sequence of Rsk3 (h) (human) (Q15349 whole entry): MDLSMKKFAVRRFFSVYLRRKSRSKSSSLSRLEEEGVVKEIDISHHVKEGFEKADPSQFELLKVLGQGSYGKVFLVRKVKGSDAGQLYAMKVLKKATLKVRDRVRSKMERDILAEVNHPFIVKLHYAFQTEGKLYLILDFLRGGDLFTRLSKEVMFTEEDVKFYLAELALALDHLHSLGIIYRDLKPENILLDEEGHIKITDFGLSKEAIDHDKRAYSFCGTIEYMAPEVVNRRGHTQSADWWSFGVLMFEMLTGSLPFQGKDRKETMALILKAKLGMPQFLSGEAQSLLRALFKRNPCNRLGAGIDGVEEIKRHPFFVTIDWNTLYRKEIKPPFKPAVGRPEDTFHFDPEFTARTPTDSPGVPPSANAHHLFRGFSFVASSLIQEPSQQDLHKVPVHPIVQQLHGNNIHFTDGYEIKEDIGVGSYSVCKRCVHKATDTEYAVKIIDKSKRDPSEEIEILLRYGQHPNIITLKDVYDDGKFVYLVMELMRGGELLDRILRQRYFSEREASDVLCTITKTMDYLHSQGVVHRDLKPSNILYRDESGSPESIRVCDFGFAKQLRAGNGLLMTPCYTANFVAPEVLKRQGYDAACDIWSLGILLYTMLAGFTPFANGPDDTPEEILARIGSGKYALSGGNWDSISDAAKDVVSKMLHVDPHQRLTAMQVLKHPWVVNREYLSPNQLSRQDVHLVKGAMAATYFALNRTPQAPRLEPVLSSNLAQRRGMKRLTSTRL

As to MMI-0300 (peptide), the % activity at 100 µM with BrSK2 (h) (human) was found to be 83%; with DAPK1 (h) (human), 46%; with EGFR(L861Q) (h) (human) it was 25%; in the test with FGFR4 (h) (human) it was 28%; in the test with GRK6 (h) (human), 147%; in the test with GSK3α (h) (human) it was 157%. In addition, the % activity at 100 µM is 74% in the test with HIPK1 (h) (human); 88% with LIMK1 (h) (human); 78% with PKCβI (h) (human); 89% in the test with PKCγ (h) (human); 68% with PKCτ (h) (human); 33% with PKD2 (h) (human). In addition, the % activity at 100 µM is 127% with Plk3 (h) (human); 97% with RIPK2 (h) (human); 76% with Rsk3 (h) (human); 48% in the test with SGK (h) (human); 82% in the test with TAO1 (h) (human); 77% in the test with TAO3 (h) (human).
